Our source for the Km, kcat and kcat/Km values is publication PMC7383614, “Computational Design of Enantiocomplementary Epoxide Hydrolases for Asymmetric Synthesis of Aliphatic and Aromatic Diols” (Chembiochem, 2020).

What all share (test): initial velocities of diol formation, Michaelis-Menten fit
What all share (format): biochemical, Rhodococcus erythropolis
Details in all cases: buffer and temperature of kinetics not given (activity assays: 50 mM HEPES pH 8, 30 °C)

Substrate in data set [1]: c1ccc([C@H]2O[C@H]2c2ccccc2)cc1
An excerpt:
(§1) initial velocities of diol formation, Michaelis-Menten fit on LEH-P (thermostable limonene epoxide hydrolase)

Substrate in data set [2]: C1CC2OC2C1
Source text: as §1

Substrate in data set [3]: C[C@@H]1O[C@@H]1C
Source text: as §1

Setting [4] is: variant 43A, single measurement, margin from average coefficient of variation.

B1: LEH-P (thermostable limonene epoxide hydrolase) (Rhodococcus erythropolis; A19K/E45K/N92K/S15P/T2A/T76K/T85V/Y96F) (protein)
chain: MASKIEQPRWASKDPAAGKASTPDEKIVLEFMDALTSNDAAKLIKYFAEDTMYQNMPLPPAYGRDAVEQTLAGLFKVMSIDAVEVFHIGSSKGLVFTERVDVLRALPTGKSYNLSILGVFQLTEGKITGWRDYFDLREFEEAVDLPLRG
notes: N-terminal hexa-His tag; expressed in E. coli; dimeric
For B1, in data set [1], the Michaelis-Menten constant (Km) amounted to 370 ± 20 µM, the kcat worked out at 0.147 ± 0.012 s⁻¹ and the catalytic efficiency (kcat/Km) was determined as 406 M⁻¹ s⁻¹. In data set [2], the Km came to 4200 ± 200 µM, the kcat turned out to be 0.035 ± 0.004 s⁻¹ and the catalytic efficiency (kcat/Km) worked out at 7.9 M⁻¹ s⁻¹. In addition, in data set [3], the Michaelis constant (Km) amounted to 18000 ± 1000 µM, the kcat amounted to 0.056 ± 0.01 s⁻¹ and the kcat/Km worked out at 3.1 M⁻¹ s⁻¹.

B2: LEH-P (thermostable limonene epoxide hydrolase) (Rhodococcus erythropolis; A19K/E45K/F139L/I80W/L103V/L35G/M32L/N92K/S15P/T2A/T76K/T85V/Y96F) (protein)
chain: MASKIEQPRWASKDPAAGKASTPDEKIVLEFLDAGTSNDAAKLIKYFAEDTMYQNMPLPPAYGRDAVEQTLAGLFKVMSWDAVEVFHIGSSKGLVFTERVDVVRALPTGKSYNLSILGVFQLTEGKITGWRDYFDLRELEEAVDLPLRG
notes: as for B1
Regarding B2, in data set [1] (variant 60A), the Michaelis-Menten constant (Km) was 60 ± 10 µM, the kcat came out at 0.052 ± 0.006 s⁻¹ and the specificity constant (kcat/Km) was determined as 890 M⁻¹ s⁻¹.

B3: LEH-P (thermostable limonene epoxide hydrolase) (Rhodococcus erythropolis; A19K/E45K/F134Y/F139W/L103V/L74I/N92K/S15P/T2A/T76K/T85V/Y96F) (protein)
chain: MASKIEQPRWASKDPAAGKASTPDEKIVLEFMDALTSNDAAKLIKYFAEDTMYQNMPLPPAYGRDAVEQTLAGIFKVMSIDAVEVFHIGSSKGLVFTERVDVVRALPTGKSYNLSILGVFQLTEGKITGWRDYYDLREWEEAVDLPLRG
notes: as for B1
Take B3: in data set [2] (setting [4]), the Km came to 35000 ± 4000 µM, the kcat is 0.017 ± 0.005 s⁻¹ and the kcat/Km is 0.48 M⁻¹ s⁻¹.

B4: LEH-P (thermostable limonene epoxide hydrolase) (Rhodococcus erythropolis; A19K/E45K/F139L/I116F/L103I/L114M/L35M/M32L/N92K/S15P/T2A/T76K/T85V/Y96F) (protein)
chain: MASKIEQPRWASKDPAAGKASTPDEKIVLEFLDAMTSNDAAKLIKYFAEDTMYQNMPLPPAYGRDAVEQTLAGLFKVMSIDAVEVFHIGSSKGLVFTERVDVIRALPTGKSYNMSFLGVFQLTEGKITGWRDYFDLRELEEAVDLPLRG
notes: as for B1
As to B4, in data set [1] (variant 41B), the Km was found to be 190 ± 20 µM, the kcat turned out to be 0.002 ± 0.001 s⁻¹ and the catalytic efficiency (kcat/Km) was 10.5 M⁻¹ s⁻¹.

B5: LEH-P (thermostable limonene epoxide hydrolase) (Rhodococcus erythropolis; A19K/E45K/I116F/L103I/L114M/L35M/M32L/M78I/N92K/S15P/T2A/T76K/T85V/Y96F) (protein)
chain: MASKIEQPRWASKDPAAGKASTPDEKIVLEFLDAMTSNDAAKLIKYFAEDTMYQNMPLPPAYGRDAVEQTLAGLFKVISIDAVEVFHIGSSKGLVFTERVDVIRALPTGKSYNMSFLGVFQLTEGKITGWRDYFDLREFEEAVDLPLRG
notes: as for B1
Consider B5, for which, in data set [1] (variant 52A), the Km is 160 ± 30 µM, the kcat worked out at 0.003 ± 0.001 s⁻¹ and the catalytic efficiency (kcat/Km) was determined as 19 M⁻¹ s⁻¹.

B6: LEH-P (thermostable limonene epoxide hydrolase) (Rhodococcus erythropolis; A19K/E45K/F139L/I116V/I80F/L103I/M32A/M78I/N92K/S15P/T2A/T76K/T85V/Y96F) (protein)
chain: MASKIEQPRWASKDPAAGKASTPDEKIVLEFADALTSNDAAKLIKYFAEDTMYQNMPLPPAYGRDAVEQTLAGLFKVISFDAVEVFHIGSSKGLVFTERVDVIRALPTGKSYNLSVLGVFQLTEGKITGWRDYFDLRELEEAVDLPLRG
notes: as for B1
As to B6, in data set [2] (variant 24A), the Michaelis-Menten constant (Km) was found to be 3000 ± 200 µM, the turnover number (kcat) was found to be 0.005 ± 0.001 s⁻¹ and the kcat/Km is 1.9 M⁻¹ s⁻¹.
